Like-named read-outs stand apart in the source and are kept apart here.
Legend:
[1] = target: mouse α11β1 (Mus musculus, UniProt P61622); experiment: Cross-reactivity with mouse α11β1 (SPR); assay type: binding; conditions: for Cross reacts with mouse α11β1: yes/no
[2] = target: T1, CHO-hu α11 (Homo sapiens, UniProt Q9UKX5); experiment: Cell adhesion inhibition on type I collagen (xCelligence); assay type: cell-based
T1 construct: expressed in transfected cells; host or cells: CHO-K1
Method: 0.6×10^6 cells/mL were incubated with each antibody at a range of concentrations for 20 minutes at 37° C. E-Plate VIEW 96 PET plate coated with 100 ng/ml type I collagen or PBS overnight at room temperature was blocked in 3% BSA for 1 hour at room temperature. After washing the plate with PBS, cell and antibody mixture was added to the wells and the plate was places into an xCelligence machine. Cell adhesion was recorded over 6 hours. The time point of maximum cell adhesion was used for comparison relative to control.

[3] = system: CHO cell lines expressing α11; experiment: Collagen gel contraction assay; assay type: cell-based
Method: 24-well plates were blocked with 2% BSA in PBS overnight at 37° C. The following day, the plates were washed 3 times with PBS before being used in the assay. Human CHO cell lines expressing all were harvested and resuspended at 1.25×10^6 in ExpiCHO Expression Medium (Gibco™ Cat #A2910002). The collagen gel solution was prepared by diluting 3 mg/mL stock collagen type I (Gibco™ Collagen I Rat Protein, Tail Cat #A1048301) to I mg/mL in the media containing the CHO cells. Sodium hydroxide was added to the solution to neutralize the pH and 400 μL of the collagen solution was added to each well of the 24-well plates. For the wells where the antibodies were included in the collagen gel solution, CHO cells were prepared at 2.5×10^6 and the antibodies were prepared at 2× final concentration in ExpiCHO media. The cells and antibodies were then combined 1:1 before the addition of the stock collagen type I. The gels were allowed to polymerize for 60 minutes at 37° C. Antibodies were added to the ExpiCHO media, which was then layered on top of the polymerized gel ([…]). The gels were incubated for 6 days at 37° C. before gel contraction was quantified. Images of each well were analyzed using Image J and gel contraction was determined as a percentage of the initial gel area.

[4] = system: Precision cut kidney slices (PCKS); experiment: Human fibrotic precision cut kidney slices (PCKS) treated with TGF-β1 and PDGFββ, secreted mediators; assay type: cell-based; conditions: increasing antibody doses, dose dependent; for inhibition of secreted Col1a1: FIG. 2; for inhibition of secreted IL-11: FIG. 3
Method: Precision cut kidney slices (PCKS) were treated with TGF-β1 and PDGFββ in the presence or absence of Alk5i and increasing doses of anti-α11β1 antibodies. The antibodies provided an inhibition of secreted pro-fibrotic and pro-inflammatory mediators Col1a1 (1994-01-C7 FIG. 2A, 79E3E3 FIG. 2B, and 16E10 FIG. 2C) and IL-11 (1994-01-C7 FIG. 3A, 79E3E3 FIG. 3B, and 16E10 FIG. 3C) in a dose dependent manner.

[5] = target: T1, CHO-hu α11; experiment: FACS antibody binding to CHO-K1 cells expressing human α11
Method: 200,000 cells (wild-type CHO-K1 cells or CHO-K1 cells expressing human α11) were incubated with each antibody at desired concentrations in FACS buffer for 30 min at 4° C. Then, the cells were washed with FACS buffer and incubated with secondary antibody at 1:100 dilution for 30 minutes at 4° C. Cells were then washed and fixed with 1% PF A in PBS for 20 minutes at room temperature; washed again and read on a cytometer in FACS buffer.

[6] = target: Pulmonary Myofibroblast; experiment: FACS antibody binding to pulmonary myofibroblasts (HPF/MF); parameters: species or system human; conditions: Table 11, 1994-01-C7 variants, FIG. 4B
Method: Human Pulmonary Fibroblasts (ScienCell) were cultured in complete Fibroblast Growth Medium (ScienCell) until 80% confluent in T-150 flasks. Cells were washed and harvested using Accutase. Cells were seeded into T-150 flasks at 7,500 cells/cm^2 in complete FGF and cultured for 72 hours. Cells were then washed and starved in serum reduced medium for 24 hours. After starvation, cells were treated with TGFβ1 (R&D Systems) for 72 hours. Cells were harvested using Accutase and seeded in 96-well conical bottom plates. Cells were blocked with Heat Inactived Fetal Bovine Serum (Gibco) for 30 minutes at 4° C. Cells were then incubated with anti-al I antibodies at the doses described in each figure for 30 minutes at 4° C. A human anti-al I antibody (Creative BioLabs) was included as a positive control as well as the appropriate IgG isotype negative controls. Cells were washed twice and incubated with PE conjugated secondary antibodies specific to the IgG class of the anti-α11 antibodies being tested for 30 minutes at 4° C. Cells were washed twice and fixed in 1% PF A for 30 minutes. Cells were acquired on a FACS Verse […]. Data were analyzed by gating on single cells and determining the geometric Mean Fluorescence Intensity (gMFI) in the PE channel for each sample.

[7] = target: T2, cell-mu all (Mus musculus, UniProt P61622); experiment: Binding to cells expressing mouse α11
T2 construct: expressed in transfected cells

[8] = Table 11, 1994-01-C7 variants, FIG. 4A
[9] = Table 11, 1994-01-C7 variants, FIG. 4C, read-out: Inhibition of Cell Adhesion IC50

Chain of mouse α11β1 (P61622 23-1141 limits assumed): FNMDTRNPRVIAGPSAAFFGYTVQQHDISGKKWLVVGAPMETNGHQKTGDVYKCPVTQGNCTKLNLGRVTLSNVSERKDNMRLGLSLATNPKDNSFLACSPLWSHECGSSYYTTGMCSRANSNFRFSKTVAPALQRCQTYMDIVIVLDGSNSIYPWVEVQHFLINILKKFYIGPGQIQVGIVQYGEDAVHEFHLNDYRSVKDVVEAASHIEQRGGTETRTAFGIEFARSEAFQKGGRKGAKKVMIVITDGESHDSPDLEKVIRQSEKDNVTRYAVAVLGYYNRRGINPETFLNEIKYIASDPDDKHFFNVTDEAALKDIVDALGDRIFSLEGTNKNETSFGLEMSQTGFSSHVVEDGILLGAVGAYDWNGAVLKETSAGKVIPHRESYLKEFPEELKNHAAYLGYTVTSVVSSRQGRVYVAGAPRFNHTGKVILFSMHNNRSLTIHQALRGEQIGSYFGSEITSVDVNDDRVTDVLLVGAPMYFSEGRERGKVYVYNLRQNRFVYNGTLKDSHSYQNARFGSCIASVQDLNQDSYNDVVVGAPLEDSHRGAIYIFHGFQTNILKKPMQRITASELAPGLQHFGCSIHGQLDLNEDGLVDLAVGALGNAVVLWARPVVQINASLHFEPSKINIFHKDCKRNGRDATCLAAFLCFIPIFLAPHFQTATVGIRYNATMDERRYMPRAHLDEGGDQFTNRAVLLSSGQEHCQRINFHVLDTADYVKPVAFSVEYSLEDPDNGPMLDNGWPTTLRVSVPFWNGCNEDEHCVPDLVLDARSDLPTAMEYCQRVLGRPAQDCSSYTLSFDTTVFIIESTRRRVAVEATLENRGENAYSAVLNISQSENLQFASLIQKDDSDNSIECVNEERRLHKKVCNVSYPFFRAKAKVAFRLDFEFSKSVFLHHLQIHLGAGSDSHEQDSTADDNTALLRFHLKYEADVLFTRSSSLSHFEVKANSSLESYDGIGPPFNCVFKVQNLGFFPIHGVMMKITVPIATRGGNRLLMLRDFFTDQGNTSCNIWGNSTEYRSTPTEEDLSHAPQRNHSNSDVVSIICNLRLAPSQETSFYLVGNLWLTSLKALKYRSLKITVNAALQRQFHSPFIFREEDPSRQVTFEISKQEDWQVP
Chain of mouse α11β1 (P09055 21-728 partner limits assumed): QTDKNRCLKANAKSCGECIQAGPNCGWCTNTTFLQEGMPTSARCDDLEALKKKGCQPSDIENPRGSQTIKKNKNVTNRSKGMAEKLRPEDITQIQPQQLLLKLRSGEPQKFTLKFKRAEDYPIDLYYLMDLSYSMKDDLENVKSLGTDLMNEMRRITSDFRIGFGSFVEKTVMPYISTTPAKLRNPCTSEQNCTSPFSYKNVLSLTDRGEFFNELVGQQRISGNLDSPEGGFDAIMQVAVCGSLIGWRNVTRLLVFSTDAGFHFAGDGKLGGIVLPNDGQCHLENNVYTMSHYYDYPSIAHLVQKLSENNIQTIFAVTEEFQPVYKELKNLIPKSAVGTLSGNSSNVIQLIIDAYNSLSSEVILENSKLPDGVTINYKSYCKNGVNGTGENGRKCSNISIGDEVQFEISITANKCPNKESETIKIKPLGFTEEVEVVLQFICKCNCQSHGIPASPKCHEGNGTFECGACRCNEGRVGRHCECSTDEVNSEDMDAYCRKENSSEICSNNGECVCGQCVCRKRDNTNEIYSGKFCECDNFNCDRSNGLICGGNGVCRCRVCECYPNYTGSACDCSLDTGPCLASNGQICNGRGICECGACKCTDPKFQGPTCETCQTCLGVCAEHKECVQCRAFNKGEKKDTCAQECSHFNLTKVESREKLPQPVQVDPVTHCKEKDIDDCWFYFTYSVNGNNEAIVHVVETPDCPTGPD
T1 sequence (Q9UKX5 23-1188): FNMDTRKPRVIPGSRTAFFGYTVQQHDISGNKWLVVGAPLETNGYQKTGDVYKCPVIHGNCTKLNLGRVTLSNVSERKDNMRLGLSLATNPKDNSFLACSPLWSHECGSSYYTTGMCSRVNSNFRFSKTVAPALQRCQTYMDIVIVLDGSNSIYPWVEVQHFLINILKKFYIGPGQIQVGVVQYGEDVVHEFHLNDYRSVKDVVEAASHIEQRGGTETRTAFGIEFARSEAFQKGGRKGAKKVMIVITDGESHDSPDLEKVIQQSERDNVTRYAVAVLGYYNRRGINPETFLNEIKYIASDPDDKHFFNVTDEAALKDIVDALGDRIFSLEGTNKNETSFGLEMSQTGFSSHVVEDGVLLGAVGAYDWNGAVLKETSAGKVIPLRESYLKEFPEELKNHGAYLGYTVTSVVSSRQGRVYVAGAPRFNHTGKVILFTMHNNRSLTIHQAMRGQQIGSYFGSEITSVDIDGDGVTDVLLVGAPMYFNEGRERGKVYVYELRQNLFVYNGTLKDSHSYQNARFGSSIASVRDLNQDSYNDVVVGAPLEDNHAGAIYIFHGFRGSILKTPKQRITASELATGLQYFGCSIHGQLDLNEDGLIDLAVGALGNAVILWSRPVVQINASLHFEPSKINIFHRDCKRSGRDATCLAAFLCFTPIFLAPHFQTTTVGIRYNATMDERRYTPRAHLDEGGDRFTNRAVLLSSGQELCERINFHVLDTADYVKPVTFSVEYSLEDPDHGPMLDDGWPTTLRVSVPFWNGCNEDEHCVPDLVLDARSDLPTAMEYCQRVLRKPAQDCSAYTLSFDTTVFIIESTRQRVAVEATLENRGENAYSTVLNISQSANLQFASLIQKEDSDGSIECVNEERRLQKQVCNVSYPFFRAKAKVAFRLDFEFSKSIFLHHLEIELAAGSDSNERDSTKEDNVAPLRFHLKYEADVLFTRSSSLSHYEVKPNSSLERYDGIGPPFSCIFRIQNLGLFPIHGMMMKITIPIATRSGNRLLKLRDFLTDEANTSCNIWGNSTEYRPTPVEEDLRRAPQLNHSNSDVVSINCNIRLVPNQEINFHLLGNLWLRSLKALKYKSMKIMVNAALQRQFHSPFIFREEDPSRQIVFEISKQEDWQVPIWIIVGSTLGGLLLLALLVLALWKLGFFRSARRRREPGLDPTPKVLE
T1 sequence (P05556 21-798 partner): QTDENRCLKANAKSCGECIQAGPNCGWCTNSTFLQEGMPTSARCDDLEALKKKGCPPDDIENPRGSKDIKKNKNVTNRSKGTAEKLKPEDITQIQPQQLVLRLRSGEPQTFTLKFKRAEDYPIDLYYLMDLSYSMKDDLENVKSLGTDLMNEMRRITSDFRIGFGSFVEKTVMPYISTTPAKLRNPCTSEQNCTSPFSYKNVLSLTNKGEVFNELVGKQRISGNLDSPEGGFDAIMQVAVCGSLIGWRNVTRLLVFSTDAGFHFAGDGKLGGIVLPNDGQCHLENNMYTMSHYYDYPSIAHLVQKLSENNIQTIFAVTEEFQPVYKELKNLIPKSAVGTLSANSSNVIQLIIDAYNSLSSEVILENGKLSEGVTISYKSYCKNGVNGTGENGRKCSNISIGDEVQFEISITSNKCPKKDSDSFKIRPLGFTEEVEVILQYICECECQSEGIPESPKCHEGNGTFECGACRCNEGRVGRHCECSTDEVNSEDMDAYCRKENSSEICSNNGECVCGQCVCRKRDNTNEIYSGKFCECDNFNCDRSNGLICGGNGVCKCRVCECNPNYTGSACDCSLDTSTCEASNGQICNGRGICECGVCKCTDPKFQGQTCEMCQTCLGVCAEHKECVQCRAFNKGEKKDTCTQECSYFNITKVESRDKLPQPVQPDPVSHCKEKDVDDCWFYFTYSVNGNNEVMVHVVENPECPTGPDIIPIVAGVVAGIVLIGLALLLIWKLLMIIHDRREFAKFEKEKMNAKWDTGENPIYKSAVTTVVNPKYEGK

Row | Molecule | Cross reacts with mouse α11β1 [1] | IC50 ([2]; Table 12, 16E10 variants, FIG. 5B, read-out: CHO-α11 Adhesion Inhibition IC50) [nM] | Inhibits CHO-α11 mediated collagen gel contraction [3] | inhibition of secreted Col1a1 [4] | inhibition of secreted IL-11 [4] | Kd ([1]; mouse α11β1, method not given, read-out: Cross reacts with mouse α11β1 (affinity)) [nM] | EC50 ([5]; Table 13, 79E3E3 variants) [nM] | EC50 [5, 8] [nM] | EC50 [6] [nM] | IC50 [2, 9] [nM] | binds cell-mu all [7]
1 | 16E10: anti-α11β1 monoclonal antibody from B cell sorting; VH SEQ ID NO: 57, VL SEQ ID NO: 62 (antibody, V domains shown) VH: QSLEESGGDLVKPGASLTLTCRVSGFSFSSSYYMCWVRQAPGKGLEWIACIGTTRGSTYYATWAKGRFTISKISSTTVTLQMTSLTDADTATYFCARDATGYRINTIGLYFNLWGPGTLVTVSS VL: ELTQTPSSVEAAVGGTPTIKCQASQTIYSYLSWYQQKPGQPPKLLIYEASKLASGVPSRFSGSGSGTDYTLTISDLECADAATYYCQSYHGTASTEYNTFGGGTEVVVK | No | 0.4 | Yes | inhibition | inhibition |  |  |  |  |  | 
2 | 79E3E3: anti-α11β1 monoclonal antibody from rat hybridoma; VH SEQ ID NO: 8, VL SEQ ID NO: 20 (antibody, V domains shown) VH: QIQLVQSGPEVKKPGESVKISCKASGYTFTDYAMNWVKQAPGNGLKWMGWINTQTGKPTYADDFKQRFVFSLETSARTTYLQINNLNIEDTATYFCTRLGTGNTKGFAYWGQGTLVTVSS VL: DILINQSPASLTVSAGERVTMSCKSSQSLLYSENNQDYLAWYQQKPGQFPKLLIYGASNRHTGVPDRFTGSGSGTDFTLTISSVQAEDLADYYCEQTYRYPFTFGSGTKLEIK |  |  | Yes | inhibition | inhibition | 0.21 | 2.5 |  |  |  | 
3 | 1994-01-C7 (#9): anti-α11β1 monoclonal antibody from human phage display; VH SEQ ID NO: 32, VL SEQ ID NO: 37 (antibody, V domains shown) VH: QVQLVQSGAEVKKPGASVKVSCKASGYTFTSYGISWVRQAPGQGLEWMGWISAYNGNTNYAQKLQGRVTMTTDTSTSTAYMELRSLRSDDTAAYYCARVTGITGTTIDPWGQGTMVTVSS VL: DIQMTQSPSSLSASVGDRVTITCRASQSISSYLNWYQQKPGKAPKLLIYDASSLESGVPSRFSGSGSGTEFTLTISSLQPDDFAVYYCQQYNNWPQTFGQGTKVEIK | No by SPR |  | Yes | inhibition | inhibition |  |  | 3 | 3.6 | 3.4 | binds
4 | Antibody 58: 1994-01-C7 variant; VH SEQ ID NO: 31, VL SEQ ID NO: 37 (antibody, V domains shown) VH: QVQLVQSGAEVKKPGASVKVSCKASGYTFTSYGISWVRQAPGQGLEWMGWISAYNANVNYAQKLQGRVTMTTDTSTSTAYMELRSLRSDDTAAYYCARVTGITGTTIGPWGQGTMVTVSS VL: DIQMTQSPSSLSASVGDRVTITCRASQSISSYLNWYQQKPGKAPKLLIYDASSLESGVPSRFSGSGSGTEFTLTISSLQPDDFAVYYCQQYNNWPQTFGQGTKVEIK |  |  |  |  |  |  |  | 5.94 | 2.87 | 3 | 
5 | Antibody 54: 1994-01-C7 variant; VH SEQ ID NO: 30, VL SEQ ID NO: 37 (antibody, V domains shown) VH: QVQLVQSGAEVKKPGASVKVSCKASGYTFTSYGISWVRQAPGQGLEWMGWISAYNANTNYAQKLQGRVTMTTDTSTSTAYMELRSLRSDDTAAYYCARVTGITGTTIGPWGQGTMVTVSS VL: DIQMTQSPSSLSASVGDRVTITCRASQSISSYLNWYQQKPGKAPKLLIYDASSLESGVPSRFSGSGSGTEFTLTISSLQPDDFAVYYCQQYNNWPQTFGQGTKVEIK |  |  |  |  |  |  |  | 5.5 | 2.4 | 3.5 | 
6 | Antibody 60: 1994-01-C7 variant; VH SEQ ID NO: 33, VL SEQ ID NO: 37 (antibody, V domains shown) VH: QVQLVQSGAEVKKPGASVKVSCKASGYTFTSYGISWVRQAPGQGLEWMGWISAYNSNTNYAQKLQGRVTMTTDTSTSTAYMELRSLRSDDTAAYYCARVTGITGTTIGPWGQGTMVTVSS VL: DIQMTQSPSSLSASVGDRVTITCRASQSISSYLNWYQQKPGKAPKLLIYDASSLESGVPSRFSGSGSGTEFTLTISSLQPDDFAVYYCQQYNNWPQTFGQGTKVEIK |  |  |  |  |  |  |  | 5.3 | 4.6 | 4.2 | 

Source: patent publication US20260184794A1, “ANTIBODIES AGAINST INTEGRIN ALPHA 11 BETA 1 AND USES THEREOF” (Momenta Pharmaceuticals, Inc., priority 2022, published 2026)
